{"source": "patent US20190023793A1", "biological_target": "human PD-L1 full-length protein on cells (human) (UniProt Q9NZQ7)", "sequence (Q9NZQ7 19-290)": "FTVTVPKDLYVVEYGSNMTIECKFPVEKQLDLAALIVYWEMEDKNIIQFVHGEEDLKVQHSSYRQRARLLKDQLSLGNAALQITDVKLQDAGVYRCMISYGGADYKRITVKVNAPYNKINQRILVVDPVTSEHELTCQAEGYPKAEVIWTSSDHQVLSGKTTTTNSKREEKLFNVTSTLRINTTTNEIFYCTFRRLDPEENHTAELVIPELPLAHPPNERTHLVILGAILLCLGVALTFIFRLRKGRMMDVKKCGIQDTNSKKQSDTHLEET", "assay": "cell-based or functional assay", "data": [{"substance": "Atezolizumab (antibody)", "values": [{"measurement": "MOA NFAT reporter signal (Bio-Glo) at 0.005 nm", "value": 16900}, {"measurement": "MOA NFAT reporter signal (Bio-Glo) at 0.015 nm", "value": 18400}, {"measurement": "MOA NFAT reporter signal (Bio-Glo) at 0.046 nm", "value": 17200}, {"measurement": "MOA NFAT reporter signal (Bio-Glo) at 0.137 nm", "value": 19200}, {"measurement": "MOA NFAT reporter signal (Bio-Glo) at 0.412 nm", "value": 29300}, {"measurement": "MOA NFAT reporter signal (Bio-Glo) at 1.235 nm", "value": 70800}, {"measurement": "MOA NFAT reporter signal (Bio-Glo) at 3.704 nm", "value": 96900}, {"measurement": "MOA NFAT reporter signal (Bio-Glo) at 11.111 nm", "value": 96500}, {"measurement": "MOA NFAT reporter signal (Bio-Glo) at 33.333 nm", "value": 98000}, {"measurement": "MOA NFAT reporter signal (Bio-Glo) at 100.000 nm", "value": 94000}]}, {"substance": "IgG1 negative control (antibody)", "values": [{"measurement": "MOA NFAT reporter signal (Bio-Glo) at 100.000 nm, negative control", "value": 15700}]}, {"substance": "Durvalumab (antibody)", "values": [{"measurement": "MOA NFAT reporter signal (Bio-Glo) at 0.005 nm", "value": 18200}, {"measurement": "MOA NFAT reporter signal (Bio-Glo) at 0.046 nm", "value": 20300}, {"measurement": "MOA NFAT reporter signal (Bio-Glo) at 0.137 nm", "value": 23200}, {"measurement": "MOA NFAT reporter signal (Bio-Glo) at 0.412 nm", "value": 53100}, {"measurement": "MOA NFAT reporter signal (Bio-Glo) at 1.235 nm", "value": 89700}, {"measurement": "MOA NFAT reporter signal (Bio-Glo) at 3.704 nm", "value": 103000}, {"measurement": "MOA NFAT reporter signal (Bio-Glo) at 11.111 nm", "value": 97900}, {"measurement": "MOA NFAT reporter signal (Bio-Glo) at 33.333 nm", "value": 102000}, {"measurement": "MOA NFAT reporter signal (Bio-Glo) at 100.000 nm", "value": 94100}]}]}
